Data on two molecules can be found in PMC9902482, “Isoform- and ligand-specific modulation of the adhesion GPCR ADGRL3/Latrophilin3 by a synthetic binder” (Nature Communications, 2023).

The target in assay [1] is T1, Lec domain of ADGRL3 (human, UniProt Q9HAR2, biotin on the Avi-tag (BirA) in the flow cytometry experiments).
T1 construct: ADGRL3 (Latrophilin3), human, N-terminal Lectin (Lec) domain; also called ADGRL3Lec; lectin domain of ADGRL3; source: High Five insect cells (baculovirus), secreted, purified (Ni-NTA, SEC)
Briefly: flow cytometry on cells; competition: 5 µM ADGRL3 Lec domain pre-bound to TEN2 on HEK293T cells, increasing concentrations of LK30; row of LK30 with the Lec domain. The conditions noted are these: both partners purified. (In general: A flow cytometer gives signals particle by particle.)

For a further assay, the target named is T2, Lec domain of ADGRL1 (Rattus norvegicus, UniProt O88917).
T2 construct: ADGRL1 (Latrophilin1), rat, Lectin (Lec) domain; In the ELISA the target was held on a neutravidin plate, so it was probably biotinylated; also called Lec domain from ADGRL1; ADGRL1 lectin domain; source: baculovirus method (all proteins); not further stated for this fragment
Briefly: SPR; targets immobilised via His-tag on NTA sensor chip, sAB injected in 2-fold serial dilutions (25, 12.5, 6.25, 3.125 nM), RT, MASS-1 instrument, one-to-one Langmuir fit. The conditions noted are these: both partners purified. For orientation: Surface plasmon resonance follows binding to a sensor surface in real time, without labels.

Assay [2] has as its target T1, Lec domain of ADGRL3. Described as above. The following applies: both partners purified.
For assay [3], the target named is T3, full-length ADGRL3 expressed on HEK293T cells (human, UniProt Q9HAR2). Briefly: cell-based or functional assay.
T3 sequence (Q9HAR2 20-1447): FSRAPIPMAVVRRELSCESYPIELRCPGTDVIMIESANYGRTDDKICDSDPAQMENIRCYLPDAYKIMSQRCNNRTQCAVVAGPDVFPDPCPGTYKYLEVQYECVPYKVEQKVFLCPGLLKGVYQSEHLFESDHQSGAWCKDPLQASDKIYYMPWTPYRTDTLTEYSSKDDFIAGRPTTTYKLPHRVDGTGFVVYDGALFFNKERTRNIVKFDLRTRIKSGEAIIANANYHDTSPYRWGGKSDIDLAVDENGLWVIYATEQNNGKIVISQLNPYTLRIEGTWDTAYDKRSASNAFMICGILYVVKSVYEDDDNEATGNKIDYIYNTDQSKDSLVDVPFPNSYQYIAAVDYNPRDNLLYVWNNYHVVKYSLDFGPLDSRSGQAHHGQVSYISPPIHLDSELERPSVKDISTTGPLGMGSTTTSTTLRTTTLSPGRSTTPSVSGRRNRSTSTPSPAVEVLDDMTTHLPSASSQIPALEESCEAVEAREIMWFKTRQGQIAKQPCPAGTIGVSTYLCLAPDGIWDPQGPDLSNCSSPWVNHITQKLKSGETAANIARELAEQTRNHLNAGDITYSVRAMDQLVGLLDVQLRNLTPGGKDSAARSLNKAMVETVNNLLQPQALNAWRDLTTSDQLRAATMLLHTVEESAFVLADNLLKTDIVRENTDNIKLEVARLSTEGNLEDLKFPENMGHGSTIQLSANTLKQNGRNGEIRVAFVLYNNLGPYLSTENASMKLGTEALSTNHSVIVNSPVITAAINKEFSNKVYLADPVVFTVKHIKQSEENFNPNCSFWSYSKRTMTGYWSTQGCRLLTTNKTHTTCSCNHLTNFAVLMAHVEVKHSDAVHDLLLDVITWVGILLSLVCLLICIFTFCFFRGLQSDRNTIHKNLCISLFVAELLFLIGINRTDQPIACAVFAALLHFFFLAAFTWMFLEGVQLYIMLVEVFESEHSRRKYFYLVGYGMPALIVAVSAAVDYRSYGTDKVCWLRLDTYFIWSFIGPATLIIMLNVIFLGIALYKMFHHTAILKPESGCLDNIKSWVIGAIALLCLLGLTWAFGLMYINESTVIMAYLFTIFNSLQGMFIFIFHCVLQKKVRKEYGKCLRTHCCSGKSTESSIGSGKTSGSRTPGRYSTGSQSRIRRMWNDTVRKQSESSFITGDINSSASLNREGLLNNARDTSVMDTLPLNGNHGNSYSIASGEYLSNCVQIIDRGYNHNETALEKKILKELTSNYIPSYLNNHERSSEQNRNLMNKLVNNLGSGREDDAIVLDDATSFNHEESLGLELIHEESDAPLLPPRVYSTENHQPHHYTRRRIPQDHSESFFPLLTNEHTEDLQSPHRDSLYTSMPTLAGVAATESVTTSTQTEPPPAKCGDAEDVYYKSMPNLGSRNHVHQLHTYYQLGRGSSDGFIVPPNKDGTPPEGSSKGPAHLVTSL
The target in assay [4] is T3, full-length ADGRL3 expressed on HEK293T …. Nature of the assay: flow cytometry on cells; HEK293T cells expressing full-length receptor, increasing concentrations of LK30, 30 min at 4 °C, detected with Alexa Fluor 647 anti-human F(ab')2; apparent affinity from MFI. The conditions noted are these: one partner purified.
The target of assay [5] is T4, full-length ADGRL1 expressed on HEK293T cells (Rattus norvegicus (assumed for …, UniProt O88917)).
T4 construct: ADGRL1 (Latrophilin1), full length; also called Latrophilin1; source: HEK293T, transfected, on the cell surface; not shown: FLAG, N-terminal, kept
The description is as above. The following applies: one partner purified.

For assay [6], the target named is T5, full-length TEN2 expressed on HEK293T cells (UniProt Q9NT68 1-2774).
T5 construct: teneurin-2 (TEN2), full length; Co-transfected with dsRed in the cell aggregation assay; also called FL TEN2; teneurin; source: HEK293T, transfected, on the cell surface
T5 sequence (Q9NT68 whole entry): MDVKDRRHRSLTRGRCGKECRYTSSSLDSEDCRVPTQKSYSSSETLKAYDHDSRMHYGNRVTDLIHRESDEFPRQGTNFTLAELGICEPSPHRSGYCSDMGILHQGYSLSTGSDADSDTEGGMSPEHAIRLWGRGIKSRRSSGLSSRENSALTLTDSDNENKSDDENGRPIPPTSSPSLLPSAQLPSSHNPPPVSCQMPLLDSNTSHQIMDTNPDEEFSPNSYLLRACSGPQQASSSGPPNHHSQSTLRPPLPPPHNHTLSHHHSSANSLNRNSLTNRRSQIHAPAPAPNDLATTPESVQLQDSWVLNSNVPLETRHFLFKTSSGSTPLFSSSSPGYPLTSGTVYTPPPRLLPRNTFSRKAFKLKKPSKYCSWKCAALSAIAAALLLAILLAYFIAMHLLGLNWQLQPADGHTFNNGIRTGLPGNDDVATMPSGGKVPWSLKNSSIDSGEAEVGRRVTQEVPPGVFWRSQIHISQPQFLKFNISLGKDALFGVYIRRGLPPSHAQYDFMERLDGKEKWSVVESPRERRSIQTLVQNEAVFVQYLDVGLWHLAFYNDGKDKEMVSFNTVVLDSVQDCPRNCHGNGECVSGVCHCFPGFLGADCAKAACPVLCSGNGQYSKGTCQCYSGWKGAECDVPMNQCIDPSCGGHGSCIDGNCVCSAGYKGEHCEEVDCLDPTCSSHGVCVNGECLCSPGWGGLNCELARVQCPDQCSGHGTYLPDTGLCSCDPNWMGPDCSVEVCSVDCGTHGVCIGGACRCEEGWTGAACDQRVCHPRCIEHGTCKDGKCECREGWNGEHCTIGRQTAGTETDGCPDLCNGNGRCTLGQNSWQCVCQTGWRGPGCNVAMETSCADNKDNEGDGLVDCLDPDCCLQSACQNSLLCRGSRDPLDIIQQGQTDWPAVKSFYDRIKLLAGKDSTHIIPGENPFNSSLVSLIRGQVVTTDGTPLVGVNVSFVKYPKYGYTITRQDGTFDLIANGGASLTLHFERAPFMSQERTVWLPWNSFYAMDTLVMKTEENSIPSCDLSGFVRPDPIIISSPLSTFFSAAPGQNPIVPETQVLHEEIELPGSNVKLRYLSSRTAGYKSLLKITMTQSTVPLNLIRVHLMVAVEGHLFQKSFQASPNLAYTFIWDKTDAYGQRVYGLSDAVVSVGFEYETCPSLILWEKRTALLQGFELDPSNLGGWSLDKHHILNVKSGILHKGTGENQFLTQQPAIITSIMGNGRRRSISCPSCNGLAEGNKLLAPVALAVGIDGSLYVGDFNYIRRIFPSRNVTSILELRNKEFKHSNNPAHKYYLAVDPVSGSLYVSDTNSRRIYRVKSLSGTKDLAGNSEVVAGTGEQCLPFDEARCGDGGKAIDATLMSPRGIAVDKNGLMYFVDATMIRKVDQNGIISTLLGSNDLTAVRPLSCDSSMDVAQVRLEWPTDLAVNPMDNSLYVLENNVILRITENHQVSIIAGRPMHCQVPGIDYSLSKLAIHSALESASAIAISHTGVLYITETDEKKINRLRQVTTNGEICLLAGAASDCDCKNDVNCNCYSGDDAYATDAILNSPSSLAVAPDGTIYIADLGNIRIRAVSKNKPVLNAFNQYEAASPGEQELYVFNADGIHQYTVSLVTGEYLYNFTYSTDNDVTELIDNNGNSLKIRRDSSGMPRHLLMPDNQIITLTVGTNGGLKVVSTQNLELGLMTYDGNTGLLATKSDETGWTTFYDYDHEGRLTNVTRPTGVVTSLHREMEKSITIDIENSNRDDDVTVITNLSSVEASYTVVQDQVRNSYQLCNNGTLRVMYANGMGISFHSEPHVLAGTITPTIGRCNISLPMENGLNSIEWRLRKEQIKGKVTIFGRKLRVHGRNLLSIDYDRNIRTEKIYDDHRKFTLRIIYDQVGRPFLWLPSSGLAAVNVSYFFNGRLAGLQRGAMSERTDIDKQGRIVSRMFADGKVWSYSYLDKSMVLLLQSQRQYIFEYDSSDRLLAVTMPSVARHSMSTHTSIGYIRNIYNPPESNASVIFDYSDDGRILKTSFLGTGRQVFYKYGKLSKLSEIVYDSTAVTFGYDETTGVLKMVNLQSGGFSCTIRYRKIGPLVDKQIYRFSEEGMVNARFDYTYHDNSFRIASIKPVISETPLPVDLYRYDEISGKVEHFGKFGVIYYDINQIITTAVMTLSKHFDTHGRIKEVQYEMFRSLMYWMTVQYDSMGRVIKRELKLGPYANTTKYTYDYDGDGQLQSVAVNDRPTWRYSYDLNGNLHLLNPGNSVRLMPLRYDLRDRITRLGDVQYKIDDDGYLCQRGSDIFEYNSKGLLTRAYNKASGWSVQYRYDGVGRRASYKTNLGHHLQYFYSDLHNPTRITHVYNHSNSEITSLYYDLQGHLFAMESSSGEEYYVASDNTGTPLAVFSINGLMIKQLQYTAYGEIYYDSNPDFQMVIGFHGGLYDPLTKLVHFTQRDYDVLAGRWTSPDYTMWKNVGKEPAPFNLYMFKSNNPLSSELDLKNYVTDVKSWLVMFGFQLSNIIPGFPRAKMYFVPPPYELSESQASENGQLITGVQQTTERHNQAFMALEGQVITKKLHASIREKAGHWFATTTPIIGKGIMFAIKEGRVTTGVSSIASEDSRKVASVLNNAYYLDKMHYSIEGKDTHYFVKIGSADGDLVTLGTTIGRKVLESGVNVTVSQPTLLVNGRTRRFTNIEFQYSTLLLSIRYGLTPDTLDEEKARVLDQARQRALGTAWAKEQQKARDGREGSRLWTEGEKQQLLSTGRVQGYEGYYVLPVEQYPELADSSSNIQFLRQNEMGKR
Briefly: flow cytometry on cells; biotinylated ADGRL3 Lec domain titrated on HEK293T cells expressing full-length TEN2, detected with DyLight 650 neutravidin. The following applies: one partner purified.

Usually IC50 stands for the concentration at which inhibition is half-maximal. A higher IC50 goes with a need for much substance.

B1: synthetic antibody fragment (sAB) LK30 (Fab, V domains shown)
VH: EVQLVESGGGLVQPGGSLRLSCAASGFNIYYSSIHWVRQAPGKGLEWVAYISPYSGSTSYADSVKGRFTISADTSKNTAYLQMNSLRAEDTAVYYCARYKYGQGHMGAFDYWGQGTLVTVSS
VL: DIQMTQSPSSLSASVGDRVTITCRASQSVSSAVAWYQQKPGKAPKLLIYSASSLYSGVPSRFSGSRSGTDFTLTISSLQPEDFATYYCQQSNTELVTFGQGTKVEIK
notes: heavy chain (HC) of LK30 in the deposited structure PDB 8DJG; selected from synthetic phage library E on a humanized antibody Fab scaffold; light chain (LC) of LK30 in the deposited structure PDB 8DJG; Fab format (sAB) expressed from vector pRH2.2; source: E. coli BL21 (Gold), purified (protein L, Resource S ion exchange)
In the assay with Lec domain of ADGRL3 [1], B1 showed an IC50 of 193 nM. The Kd with Lec domain of ADGRL1 worked out at 11 nM; with Lec domain of ADGRL3 [2] it was 7 nM; in assay [4], 131 nM; in assay [5], 147 nM. Moreover, the “SRE-luciferase assay in HEK293T cells transfected with ADGRL3, 1 µM LK30: fold increase over basal activity” value in assay [3] was approximately 2.5 fold. Besides, the “SRE-luciferase assay in HEK293T cells transfected with ADGRL3, titration of LK30: EC50” value in assay [3] is 42 nM.

B2: Lec domain of ADGRL3 (domain or fragment, human)
chain: PIPMAVVRRELSCESYPIELRCPGTDVIMIESANYGRTDDKICDSDPAQMENIRCYLPDAYKIMSQRCNNRTQCAVVAGPDVFPDPCPGTYKYLEVQYECVPY
modifications: biotin on the Avi-tag (BirA) in the flow cytometry experiments
notes: ADGRL3 (Latrophilin3), human, N-terminal Lectin (Lec) domain; also called ADGRL3Lec; lectin domain of ADGRL3; source: High Five insect cells (baculovirus), secreted, purified (Ni-NTA, SEC)
B2 showed a Kd in assay [6] of 129 nM.
